{"source": "patent US20200407449A1", "about": "(PHARMABCINE, published 2020)", "binders": {"B1": {"name": "anti-VISTA antibody 1A12 (IgG form) (antibody, V domains shown)", "VH": "QMQLVESGGGLVEPGRSLRLSCTTSGFSFHDYTMYWVRQVPGKGLEWVSLISWDGTITFYADPVRGRFTISRDNSKNSLYLQMNSLRAEDTAVYYCAKEDRYDYYSGAFDIWGQGTVVTVSS", "VL": "QSALTQPRSVSGSPGQSVTISCTGTSSDVGGYDYVSWYQQHPGKAPKLILNDVNKRPSGVPDRFSGSKSGNTASLTISGLQPDDEADYYCSSFAGSNTLRVFGGGTKLTVLG"}, "B2": {"name": "1A12 monoclonal scFv phage (scFv, V domains shown)", "VH": "B1 VH", "VL": "B1 VL"}, "B3": {"name": "1B8 monoclonal scFv phage (scFv, V domains shown)", "VH": "QMQLVQSGAEVKKPGSSVKVSCKASGGSSSNYAISWVRQAPGQGLEWMGGIIPIFGTTSYAQKFQGRVTITADGSMSTAYMELSSLRSEDTAVYYCAKGAIEPWPFYFDNWGQGTLVTVSS", "VL": "QLVLTQPRSVSGSPGQSVTISCTGTNSDVGAYNYLSWYQQLPGRAPKVIIYDVNKRPSGVPDRFSGSRSGKTASLTISGLQAEDEADYYCAAWDDSLNGLVFGGGTKLTVLG", "notes": "also called IB8; Anti VISTA.3.0 (1B8)"}, "B4": {"name": "Anti VISTA_V3_2 (scFv phage clone) (scFv, V domains shown)", "VH": "B3 VH", "VL": "B3 VL with G99D", "notes": "Optimised 1B8 variant that retains the 1B8 heavy-chain variable region, measured as scFv"}, "B5": {"name": "Anti VISTA_V3_4 (scFv phage clone) (scFv, V domains shown)", "VH": "B3 VH", "VL": "B3 VL with S96N, L97S, N98D, G99F, L100H", "notes": "as for B4"}, "B6": {"name": "Anti VISTA_V3_1 (scFv phage clone) (scFv, V domains shown)", "VH": "B3 VH", "VL": "B3 VL with N98Y", "notes": "as for B4"}, "B7": {"name": "Anti VISTA_B5 (scFv phage clone) (scFv, V domains shown)", "VH": "B3 VH", "VL": "B3 VL with S96D", "notes": "Optimised 1B8 light-chain CDR3 variant, measured as scFv"}, "B8": {"name": "Anti VISTA_V3_3 (scFv phage clone) (scFv, V domains shown)", "VH": "B3 VH", "VL": "B3 VL with G99V", "notes": "as for B4"}, "B9": {"name": "Anti VISTA_H2 (scFv phage clone) (scFv, V domains shown)", "VH": "B3 VH", "VL": "B3 VL with S96N", "notes": "as for B4"}, "B10": {"name": "Anti VISTA_G1 (scFv phage clone) (scFv, V domains shown)", "VH": "B3 VH", "VL": "B3 VL with N98I, L100H", "notes": "as for B4"}, "B11": {"name": "anti-VISTA antibody 3C5 (IgG form) (antibody, V domains shown)", "VH": "QVQLVQSGAEVKKPGASVKLSCKASGYTFSSYWMHWVRQAPGQRLEWMGEINPGNGHTNYNEKFKSRVTITVDKSASTAYMELSSLRSEDTAVYYCAKDIAYYDFWSGDAFDLWGQGTMVTVSS", "VL": "SYELTQPLSVSVSPGQTASITCSGDKLGNKYASWYQQKPGQSPVLVIYQDNKRPSGIPERFSGSNSGNTATLTISGTQATDEADYYCQTWDRSTGVFGTGTKVTVLG"}, "B12": {"name": "3C5 monoclonal scFv phage (scFv, V domains shown)", "VH": "B11 VH", "VL": "B11 VL"}, "B13": {"name": "anti-VISTA antibody 2C12 (IgG form) (antibody, V domains shown)", "VH": "QVQLVESGAEVKKPGASVKVSCKASGYIFTDYYMHWVRQAPGQGLEWMGVINPYDGRTSFAQKFQGRLTVTRDTSTSTAYMDLSGLRSEDTAVYYCAKQMGIWDYDAFDIWGQGTMVTVSS", "VL": "QFVLTQPSSVSGAPGQRVIISCTGSSSNIGAGYDVHWYQQLPGTAPKVLIYGNSDRPSGVPDRFSASKSATSASLAITGLQAEDEADYYCVAWDDSLKAYVFGTGTKVTVLG", "notes": "also called #2C12(H); #2C12(M)"}, "B14": {"name": "2C12 monoclonal scFv phage (scFv, V domains shown)", "VH": "B13 VH", "VL": "B13 VL"}}, "key": {"mouse VISTA-Fc [1]": {"target": "T1, mouse VISTA-Fc (mouse, UniProt Q9D659 33-191)", "T1 construct": "extracellular domain; also called mVISTA-Fc; VISTA-FC Mouse; not shown: Fc portion", "T1 sequence (looked up)": "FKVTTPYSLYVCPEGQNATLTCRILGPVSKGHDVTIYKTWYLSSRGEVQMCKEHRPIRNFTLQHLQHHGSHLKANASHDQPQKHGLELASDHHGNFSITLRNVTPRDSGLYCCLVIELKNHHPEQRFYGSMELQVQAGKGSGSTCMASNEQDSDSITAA", "test": "ELISA, plate coated with 1 ug/ml mouse VISTA-Fc, antibody at 1 ug/ml, anti-human IgG (kappa)-peroxidase", "protocol": "ELISA assay: 1 μg/ml of Ag (human VISTA-Fc or mouse VISTA-Fc) was plated at 100 μl/well onto a 96-well plate and incubated at 4° C. overnight. The next day, the plated Ag was washed 3 times with 0.05% PBST and 200 μl of 2% BSA blocking buffer was added thereto, followed by incubation at 25° C. for 2 hours. After blocking was completed, the resulting product was washed 3 times with 0.05% PBST. 1 μg/ml of each antibody was injected at 100 μl/well and incubated at 25° C. for 1 hour. After incubation was completed, the resulting product was washed 3 times with 0.05% PBST and 100 μl of goat anti-human IgG (kappa)-conjugated peroxidase (1:2000, Bethyl Lab #A80-115P) was added thereto, followed by incubation at 25° C. for […]. After incubation, the resulting product was washed 3 times with 0.05% PBST, 100 μl of TMB (BD TMB substrate reagent set #555214) was added, color was developed for 3 to 5 minutes, 50 μl of a stop solution was added thereto, and then an assay was performed using an ELISA reader."}, "[2]": {"target": "T2, hVISTA-Fc (R&D systems. Cat. No. 7126-B7) (human, UniProt Q9H7M9 33-194)", "T2 construct": "Bought antigen; also called human VISTA-Fc; VISTA-FC Human", "T2 sequence": "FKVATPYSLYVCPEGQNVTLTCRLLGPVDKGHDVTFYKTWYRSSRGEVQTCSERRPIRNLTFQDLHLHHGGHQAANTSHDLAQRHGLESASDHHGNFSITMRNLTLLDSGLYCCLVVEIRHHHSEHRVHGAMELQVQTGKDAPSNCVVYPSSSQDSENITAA", "test": "Octet (BLI), antibody immobilised on biosensor, antigen in solution", "protocol": "(§1) The binding ability of the screened antibody to the antigen was measured using an Octet (ForteBio). For this purpose, the antibody was immobilized on a biosensor, various concentrations of antigen were added to a 96-well plate, and then the binding ability was measured."}, "[3]": {"target": "T2, hVISTA-Fc (R&D systems. Cat. No. …)", "test": "monoclonal scFv phage ELISA, plate coated with 1 ug/ml VISTA-Fc, anti-M13-HRP", "protocol": "(§2) After the panning process was completed, the final round cell stock was diluted to form 200 to 500 colonies, spread on a CM agar plate, and then incubated overnight at 37° C. The next day, when the colonies grew, 200 μl of 2xYT medium (CM 34 μg/ml+1% glucose) was plated onto a 96-well deep plate, the colony was inserted into each well one by one and the plate was then incubated overnight at 37° C. and 3,000 rpm. The next day, 200 μl of 2×YT medium (CM 34 μg/ml+1% glucose) was plated onto a new 96-well dip plate, and […] of cells grown the day before were injected into each well and grown at 37° C. and 3,000 rpm for 1 hour and 10 minutes. The remaining cells were stored at −70° C. in 100 pμl of 50% glycerol. When the cells grew, 1 μl of a helper phage was mixed with 19 μl of 2×YT medium, and 20 μl of the resulting mixture was injected into each well and incubated for 30 minutes at 37° C. After incubation, centrifugation was performed at 3,000 rpm for 10 minutes. The supernatant was discarded and 200 μl of 2×YT medium (CM 34 μg/ml+Kan. 70 μg/ml+1 mM IPTG+5 mM MgCl₂) was added to the residue, followed by incubation in MegaGrow at 30° C. and 3,000 rpm overnight.\n(§3) 1 μg/ml of Ag (hVISTA-Fc, mVISTA-Fc) was plated at 100 μl/well onto a 96-well immunoplate and then incubated overnight at 4° C. The next day, the cells grown the day before were centrifuged at 3,000 rpm for 10 minutes and stored at 4° C. The plated Ag was washed 3 times with 0.05% PBST, and then 200 μl of 2% BSA blocking buffer was added thereto, followed by incubation at 25° C. for 2 hours. After blocking was completed, the result was washed 3 times with 0.05% PBST. […] After phage binding was completed, the reaction product was washed three times with 0.05% PBST, 100 μl of HRP-conjugated mouse anti-M13 antibody (1:3000, #GE 27-9421-01) was added thereto, and reaction was allowed to proceed at 25° C. for 1 hour. After the reaction was completed, the resulting product was washed 3 times with 0.05% PBST, 100 μl of TMB (#BD TMB substrate reagent set 555214) was added thereto, color was developed for 3 to 5 minutes, 50 μl of a stop solution was added thereto, and then an assay was performed using an ELISA reader."}, "[4]": {"target": "T2, hVISTA-Fc (R&D systems. Cat. No. …)", "test": "dissociation rate constant of scFv in the screening of optimised clones; antigen not named"}, "mouse VISTA-Fc [5]": {"target": "T1, mouse VISTA-Fc", "test": "Octet (BLI), antibody immobilised on biosensor, antigen in solution", "protocol": "as §1"}, "mouse VISTA-Fc [6]": {"target": "T1, mouse VISTA-Fc", "test": "monoclonal scFv phage ELISA, plate coated with 1 ug/ml VISTA-Fc, anti-M13-HRP", "protocol": "as §2, §3"}}, "note": "Substitutions are numbered along the chain they refer to."}
{"binder": "B1", "values": [{"measurement": "binding result", "setting": "mouse VISTA-Fc [1]", "result": "no binding (tested: 1 ug/ml)"}, {"measurement": "Kd", "setting": "[2]", "result": 0.546, "unit": "nM"}, {"measurement": "koff", "setting": "[2]", "result": "2.74e-05", "unit": "s⁻¹"}, {"measurement": "kon", "setting": "[2]", "result": 50200, "unit": "M⁻¹ s⁻¹"}]}
{"binder": "B2", "values": [{"measurement": "OD", "setting": "[3]", "result": 1.88, "unit": "OD"}]}
{"binder": "B3", "values": [{"measurement": "koff", "setting": "[4]", "result": 0.000732, "unit": "s⁻¹"}, {"measurement": "OD", "setting": "[3]", "result": 2.13, "unit": "OD"}]}
{"binder": "B4", "values": [{"measurement": "koff", "setting": "[4]", "result": 0.00108, "unit": "s⁻¹"}]}
{"binder": "B5", "values": [{"measurement": "koff", "setting": "[4]", "result": 0.00222, "unit": "s⁻¹"}]}
{"binder": "B6", "values": [{"measurement": "koff", "setting": "[4]", "result": 0.000487, "unit": "s⁻¹"}]}
{"binder": "B7", "values": [{"measurement": "koff", "setting": "[4]", "result": 0.000616, "unit": "s⁻¹"}]}
{"binder": "B8", "values": [{"measurement": "koff", "setting": "[4]", "result": 0.00127, "unit": "s⁻¹"}]}
{"binder": "B9", "values": [{"measurement": "koff", "setting": "[4]", "result": 0.000285, "unit": "s⁻¹"}]}
{"binder": "B10", "values": [{"measurement": "koff", "setting": "[4]", "result": 0.000574, "unit": "s⁻¹"}]}
{"binder": "B11", "values": [{"measurement": "binding result", "setting": "mouse VISTA-Fc [1]", "result": "no binding (tested: 1 ug/ml)"}, {"measurement": "Kd", "setting": "[2]", "result": 13.9, "unit": "nM"}, {"measurement": "koff", "setting": "[2]", "result": 0.00367, "unit": "s⁻¹"}, {"measurement": "kon", "setting": "[2]", "result": 264000, "unit": "M⁻¹ s⁻¹"}]}
{"binder": "B12", "values": [{"measurement": "OD", "setting": "[3]", "result": 2.2, "unit": "OD"}]}
{"binder": "B13", "values": [{"measurement": "Kd", "setting": "mouse VISTA-Fc [5]", "result": 14, "unit": "nM"}, {"measurement": "koff", "setting": "mouse VISTA-Fc [5]", "result": 0.00078, "unit": "s⁻¹"}, {"measurement": "kon", "setting": "mouse VISTA-Fc [5]", "result": 55700, "unit": "M⁻¹ s⁻¹"}, {"measurement": "Kd", "setting": "[2]", "result": 1.02, "unit": "nM"}, {"measurement": "koff", "setting": "[2]", "result": "8.48e-05", "unit": "s⁻¹"}, {"measurement": "kon", "setting": "[2]", "result": 83400, "unit": "M⁻¹ s⁻¹"}]}
{"binder": "B14", "values": [{"measurement": "OD", "setting": "mouse VISTA-Fc [6]", "result": 2.03, "unit": "OD"}, {"measurement": "OD", "setting": "[3]", "result": 2.11, "unit": "OD"}]}
